Results taken from patent US20030162275A1, “Dog flavin-containing monooxygenase” (priority 2002, published 2003).

B1: SEQ ID NO: 2: Amino acid sequence of a variant of dog wild-type FMO1 (protein, listed as Canis familiaris)
chain: MAKRVAIVGAGVSGLASIKCCLEEGLEPTCFERSDDLGGLWRFTEHVEGGRASLYKSVVSNSCKEMSCYSDFPFPEDYPNYVPNSQFLEYLKMYANRFSLLKCIRFKTKVCKVTKCPDFTVTGQWEVVTQHEGKQESAIFDAVMVCTGFLTNPHLPLDCFPGINTFKGQYFHSRQYKHPDIFKDKRVLVIGMGNSGTDIAVETSRLAKKVFLSTTGGAWVMSRVFDSGYPWDVVFMTRYQNMFRNSLSTPIVTWLMARKMNSWFNHANYGLVPEDRTQLREPVLNDELPGCIITGKVLIKPSIKEVKENSVVFNNTPKEEPIDIIVFATGYTFAFPFLDETVVKVENGQASLYKYIFPVHLPKPTLAVIGLIKPLGSMIPTGETQARWAVRVLKGINKLPPQSAMTEEVNARKENKPSGFGLCYCKALQSDYITYIDELLTNINAKPNLFSLPLTDPRLALTTFFGPCTPYQFRLTGPGKWKGARNAILTQWDRTFKVTKTRIVQESPTPFASLLKLLSLLALLMAIFQIFL
B2: SEQ ID NO: 6: Amino acid sequence of dog wild-type FMO1, expressed using a baculovirus expression system in insect cells (protein, listed as Canis familiaris)
chain: MAKRVAIVGAGVSGLASIKCCLEEGLEPTCFERSDDLGGLWRFTEHVEEGRASLYKSVVSNSCKEMSCYSDFPFPEDYPNYVPNSQFLEYLKMYANRFSLLKCIRFKTKVCKVTKCPDFTVTGQWEVVTQHEGKQESAIFDAVMVCTGFLTNPHLPLDCFPGINTFKGQYFHSRQYKHPDIFKDKRVLVIGMGNSGTDIAVETSRLAKKVFLSTTGGAWVMSRVFDSGYPWDMVFMTRFQNMFRNSLPTPIVTWLMARKMNSWFNHANYGLVPEDRTQLREPVLNDELPGCIITGKVLIKPSIKEVKENSVVFNNTPKEEPIDIIVFATGYTFAFPFLDETVVKVENGQASLYKYIFPVHLPKPTLAVIGLIKPLGSMIPTGETQARWAVRVLKGINKLPPQSAMTEEVNARKENKPSGFGLCYCKALQSDYITYIDELLTNINAKPNLFSLLLTDPRLALTIFFGPCTPYQFRLTGPGKWKGARNAILTQWDRTFKVTKTRIVQESPTPFASLLKLLSLLALLMAIFLIFL
B3: SEQ ID NO: 4: Amino acid sequence of another variant of dog wild-type FMO1 (protein, listed as Canis familiaris)
chain: MAKRVAIVGAGVSGLASIKCCLEEGLEPTCFERSDDLGGLWRFTEHVEEGRASLYKSVVSNSCKEMSCYSDFPFPEDYPNYVPNSQFLEYLKMYANRFSLLKCIRFKTKVCKVTKCPDFTVTGQWEVVTQHEGKQESAIFDAVMVCTGFLTNPHLPLDYFPGINTFKGQYFHSRQYKHPDILKDKRVLVIGMGNSGTDIAVETSRLAKKVFLSTTGGAWVMSRVFDSGYPWDMVFMTRFQNMFRNSLPTPIVTWLMARKMNSWFNHANYGLVPEDRTQLREPVLNDELPGCIITGKVLIKPSIKEVKENSVVFNNTPKEEPIDIIVFATGYTFAFPFLDETVVKVENGQASLYKYIFPVHLPKPTLAVIGLIKPLGSMIPTGETQARWAVRVLKGINKLPPQSAMTEEVNARKENKPSGFGSCYCKALQSDYITYIDELLTNINAKPNLFSLLLTDPRLALTIFFGPCTPYQFRLTGPGKWKGARNAILTQWDRTFKVTKTRIVQESPTPFASLLKLLSLLALLMAIFQIFL

Assay: Enzyme activity assay (MPT S-oxidase activity of expressed FMO1 polypeptides in Sf-9 cell microsomes)
Type: biochemical, dog
Settings: 25 ug Sf-9 cell microsomal protein, 1 mM NADPH, 0.1 M tricine, 37° C., 10 minutes, HPLC detection of MPT sulfoxide at 240 nm
Experimental: Examples of particular variants of polypeptides of the invention include polypeptide of SEQ ID NO: 2 and SEQ ID NO: 4. […] This enzyme assay represents a single known method for the detemination of enzyme activity of various FMOs. Briefly, the methyl-p-tolyl (MPT) S-oxidase activity of the expressed variants of the polypeptide was assayed as a measure of FMO function. […] Incubations included 25 ug of Sf-9 cell (containing the polypeptide) microsomal protein 1 mM NADPH, and 0.1 M tricine. Incubations were started by the addition of MPTS and were conducted at 37° C. for at least 10 minutes. Following termination of the incubation, the supernatant was analyzed by high performance liquid chromatography and the MPT sulfoxide product was detected by absorbance at 240 nm and quantitated using an authentic standard of the sulfoxide metabolite.
An achiral assay method was conducted according to the data sheets provided by Gentest, with some modifications. Based on preliminary determinations of the linearity of metabolite formation with protein concentration and incubation time, incubation conditions were established using 50 μg (tissue microsomes) or 25 μg (Sf-9 cell microsomes) protein, 1 mM NADPH, and 0.1 M tricine in a total volume of 0.25 ml. Samples were incubated for 3 min at 37° C. followed by the addition of substrate (in 1% methanol) to start the reaction. Incubations were terminated after 10 minutes by the addition of 50 μl of acetonitrile, and samples were centrifuged to precipitate protein. The supernatant was analyzed by HPLC, using a 4.6 ×250 mm 5 micron C18 analytical column (Luna™C18(2), Phenomenex, Torrance Calif.) and a 1 ml/min gradient elution of 40:60/methanol:water to 60:40/methanol/water over 8 minutes, followed by substrate elution with 95% methanol. The MPT sulfoxide product was detected by absorbance at 240 nm and quantitated using the authentic standard. Imipramine N-oxidation was measured by substrate-dependent oxidation of NADPH at 340 nm Wyatt et al., 1998, using 25-50 μg of microsomal protein in a total volume of 750 μl.

Row | Molecule | enzyme activity (MPT S-oxidase activity as a measure of FMO function)
1 | B1 | inactive
2 | B2 | active
3 | B3 | inactive
